Measurements from US11945844B2, “Taste and flavor-modifier proteins” (AMAI PROTEINS LTD., priority 2018, dated 2024).

What was measured:
[1] = system: participants; experiment: Example 1D: blind comparison of combinations at 8.0° BX perception with 3.0° BX sugar addition; assay type: in vivo, human; details: 8.0 °BX perception (3.0° BX sugar addition)
Method: Further combinations were tested in blind comparison of the various combinations to sugar solution in 6 participants.

[2] = system: trained participants; experiment: Example 1D: blind testing of sweetness potency, aftertaste and lingering in comparison to sugar solution; assay type: in vivo, human; details: for sweetness potency at 8 °BX perception, greater than sugar / sweetness threshold, greater than sugar by weight: fold over sugar
Method: Based on the optimization above, the sweetness potency, the aftertaste and the lingering effect of DM08 and DM09 were tested as compared with MNEI and additional sweeteners as shown in Table 7. Test method included blind testing in 6 trained participants of each one of the proteins in comparison to sugar solution.

[3] = system: healthy assessors; experiment: Example 1C: double-blind taste assay, sweet taste threshold in solution; assay type: in vivo, human; details: for sweetness potency compatible with / simulating 1 °Bx sugar solution: relative to sucrose
Method: The solutions that were used in this study are detailed in Table 4. The solutions were prepared as follows: for each solution, an amount sweetener (sucrose/MNEI/Designer Protein; See Table 1 for details) was added as indicated in Table 6 and the solution was completed to 100 g with water (in order to obtain 1% sugar equivalent sweetener). 20 ml of each solution was poured into tasting cup and each sample was marked for blind testing according to Table 6. To evaluate the sweetness threshold for each one of the […] solutions, a double-blind taste assay was performed. The samples tested included MNEI, […] ([…]), sucrose and mineral water. A series of concentrations were prepared by diluting the stock solution of proteins with mineral water (pH 6.9) shortly before the taste assay (Table 6). Six healthy assessors participated in this session, 5 men and 1 woman, 30-75 years old of which half were trained tasters The sweetness detection threshold was defined as the lowest concentration at which the taster recognized the sample as sweet. Sweetness potencies are reported relative to sucrose. Twenty ml samples were tested randomly, in comparison to sugar solution. Before each assay, assessors were requested to rinse their mouth with water and to eat a neutral-taste cracker until no residual taste remained. The test solution was held in the mouth for at least 10 seconds. The assessors then graded the sample according to their response between 0-10; 0-no sweet perception, 10-very sweet. The sweetness detection threshold was defined as the lowest concentration at which the taster recognized the sample as sweet. Sweetness potencies are reported relative to sucrose.

[4] = system: healthy assessors; experiment: Example 1B: double-blind taste assay, sweet taste threshold in soft drink model solution; assay type: in vivo, human; details: for sweetness average score: grade 0-10; for sweetness potency simulating 1 °Bx perception: relative to sucrose
Method: The sweetness potency of MNEI-based proteins described herein relative to sucrose is typically in the range of 1:700 to 1:16,000. Thus, for the sake of comparison, the MNEI-based proteins and MNEI (as a reference protein) solutions were initially diluted 1:1000 and further diluted as needed. In general, the sweetness threshold of sugar for most people in soft drinks is 0.32%-1.0%. Calculations of MNEI-based proteins and MNEI (as a reference protein concentrations were carried out accordingly. The solutions that were used in this study are detailed in Table 5. The solutions were prepared as follows: for each solution, an amount sweetener (sucrose/MNEI/Designer (modified) Protein; See Table 1 for details) was added as indicated in Table 3 and the solution was completed to 100 g with water (in order to obtain 1% sugar equivalent sweetener). 20 ml of each solution was poured into tasting cup and each sample was marked for blind testing according to Table 5. To evaluate the sweetness threshold for each one of the […] solutions, a double-blind taste assay was performed. The samples tested included MNEI, two MNEI designer proteins (DM08 and DM10), sucrose and mineral water. A series of concentrations were prepared by diluting the stock solution of proteins with mineral water (pH 6.9) shortly before the taste assay (Table 3). Five healthy assessors participated in this session, 2 men and 3 women, 30-50 years old of which 3 were trained tasters. Twenty ml samples were tested randomly, in comparison to sugar solution. Before each assay, assessors were requested to rinse their mouth with water and to eat a neutral-taste cracker until no residual taste remained. The test solution was held in the mouth for at least 10 seconds. The assessors then graded the sample according to their response between 0-10; 0-no sweet perception, 10-very sweet. The sweetness detection threshold was defined as the lowest concentration at which the taster recognized the sample as sweet. Sweetness potencies are reported relative to sucrose.

[5] = single substitution in MNEI, Zheng et al; cited from earlier work
[6] = single substitution in MNEI, Zheng et al; cited from earlier work; remark: listed apart in the source
[7] = Sweetness potency relative to MNEI (Table 10); assay type: in vivo; details: MNEI = 1.0
[8] = Shelf life stability; assay type: physicochemical; details: at 4° C.
Method: In some embodiments the modified protein has improved shelf life relative to the reference protein. Improved shelf life refers to no sensed change in the sweetness (function) or physical deterioration of a product comprising the composition (e.g. color change, phase separation etc.) after exposure of the product to any temperature up to 150° C., at times, to any temperature between 4° C. to 150°, or to 100°.

[9] = Structural thermal stability (Tm); assay type: physicochemical
From the text: The term “structural thermal stability” or “thermal stability” as used herein refers to the ability of the modified protein to retain its 3D structure at temperatures above that of the reference protein. The 3D structural stability of a protein can be measured by any method known in the art, such as Circular Dichroism (CD), or thermal shift assays such as Differential Scanning Fluorimetry (DSF) or Differential Scanning calorimetry (DSC). The 3D structure of a protein may have an effect on the function of the protein.

[10] = dilution factor 1:500, grade 0-10
[11] = dilution factor 1:1,000, grade 0-10
[12] = dilution factor 1:2,000, grade 0-10

## OC[C@H]1O[C@@](CO)(O[C@H]2O[C@H](CO)[C@@H](O)[C@H](O)[C@H]2O)[C@@H](O)[C@@H]1O [Sucrose, reference compound]
[1]
  After Taste: No
  Late onset: No
  Lingering: No
[2]; ratio relative to sucrose, 6 trained participants
  Estimated threshold concentration: 1
[2]; single sweetener (Table 7)
  Additional After Taste & Notes: No
  Late onset: No
  Lingering After Taste: No
[3]; 0.5% sucrose solution, grade 0-10, 6 assessors
  sweetness average score: 1.9±0.9
[3]; 1% sucrose solution, grade 0-10, 6 assessors
  sweetness average score: 3.8±1.9
[4]; 0.5% sucrose solution, 5 assessors
  sweetness average score: 0.63±0.6
[4]; 1% sucrose solution, 5 assessors
  sweetness average score: 1.25±0.9

B1: E2N: MNEI with amino acid substitution E2N, CPD model; also reported by Zheng et al (protein)
chain: GNWEIIDIGPFTQNLGKFAVDEENKIGQYGRLTFNKVIRPCMKKTIYENEGFREIKGYEYQLYVYASDKLFRADISEDYKTRGRKLLRFNGPVPPP
modifications: Monelin MNEI
notes: MNEI with amino acid substitution E2N, CPD model; also reported by Zheng et al
[5]
  improved sweetness: 3 fold
[6]
  stability: slight reduced stability

B2: MNEI: single chain Monellin (MNEI) reference protein, SEQ ID NO:5, 96 amino acids (protein)
chain: GEWEIIDIGPFTQNLGKFAVDEENKIGQYGRLTFNKVIRPCMKKTIYENEGFREIKGYEYQLYVYASDKLFRADISEDYKTRGRKLLRFNGPVPPP
modifications: Monelin MNEI
[7]
  Sweetness Potency relative to MNEI: 1.0
[8]
  shelf life stability: At least 12 months
[9]
  Tm (° C.) Structural thermal stability: 69 °C
[2]; single sweetener (Table 7)
  Lingering After Taste: Sweet lingering
[3]; [10]
  sweetness average score: 4.7±3.2
[3]; [11]
  sweetness average score: 2.5±1.4
[3]; [12]
  sweetness average score: 1.0±0.7
[3]
  sweetness potency compatible with / simulating 1 °Bx sugar solution: about 1,000
[4]; dilution factor 1:1,000
  sweetness average score: 2.2±1.0
[4]; dilution factor 1:2,000
  sweetness average score: 0.98±0.4
[4]; dilution factor 1:4,000
  sweetness average score: 0.68±0.2
[4]
  sweetness potency simulating 1 °Bx perception: about 2,000

B3: DM08: modified MNEI protein, SEQ ID NO:16, E2N/E23V/Y65K (protein)
chain: GNWEIIDIGPFTQNLGKFAVDEVNKIGQYGRLTFNKVIRPCMKKTIYENEGFREIKGYEYQLYVKASDKLFRADISEDYKTRGRKLLRFNGPVPPP
modifications: DM8
[7]
  Sweetness Potency relative to MNEI: 6.0
[8]
  shelf life stability: At least 6 months
[9]
  Tm (° C.) Structural thermal stability: 81 °C
[2]
  sweetness potency at 8 °BX perception, greater than sugar: 3,500
  sweetness threshold, greater than sugar by weight: 10,000
[2]; single sweetener (Table 7)
  Additional After Taste & Notes: Low bitterness
  Lingering After Taste: Sweet lingering
[4]
  sweetness potency simulating 1 °Bx perception: about 10,000

B4: DM10: modified MNEI protein, SEQ ID NO: 18, Q28K/R31T/N35T/S67N (protein)
chain: GEWEIIDIGPFTQNLGKFAVDEENKIGKYGTLTFTKVIRPCMKKTIYENEGFREIKGYEYQLYVYANDKLFRADISEDYKTRGRKLLRFNGPVPPP
modifications: DM10
[7]
  Sweetness Potency relative to MNEI: 0.5
[9]
  Tm (° C.) Structural thermal stability: 71 °C
[4]
  sweetness potency simulating 1 °Bx perception: about 1,000

B5: DM11: modified MNEI protein, SEQ ID NO: 19, I8T/N14K/C41T/R84L (protein)
chain: GEWEIIDTGPFTQKLGKFAVDEENKIGQYGRLTFNKVIRPTMKKTIYENEGFREIKGYEYQLYVYASDKLFRADISEDYKTRGLKLLRFNGPVPPP
modifications: DM11
[7]
  Sweetness Potency relative to MNEI: 0.2
[9]
  Tm (° C.) Structural thermal stability: 69 °C
[3]; [10]
  sweetness average score: 0.0±0.0
[3]; [11]
  sweetness average score: 0.3±0.8
[3]; [12]
  sweetness average score: 0.4±0.9
[3]
  sweetness potency compatible with / simulating 1 °Bx sugar solution: below 500

B6: DM12: modified MNEI protein, SEQ ID NO: 20, I8T/C41T as printed in Table 4 (protein)
chain: GEWEIIDTGPFTQNLGKFAVDEENKIGQYGRLTFNKVIRPTMKKTIYENEGFREIKGYEYQLYVYASDKLFRADISEDYKTRGLKLLRFNGPVPPP
modifications: DM12
[7]
  Sweetness Potency relative to MNEI: 0.5
[9]
  Tm (° C.) Structural thermal stability: 65 °C
[3]; all dilution factors (1:500, 1:1,000, 1:2,000), no noticeable dose response
  sweetness average score: ~1.0

B7: DM09: modified MNEI protein, SEQ ID NO:17, E2N/E23A/Y65R (protein)
chain: GNWEIIDIGPFTQNLGKFAVDEANKIGQYGRLTFNKVIRPCMKKTIYENEGFREIKGYEYQLYVRASDKLFRADISEDYKTRGRKLLRFNGPVPPP
modifications: DM9
[7]
  Sweetness Potency relative to MNEI: 7.5
[8]
  shelf life stability: At least 6 months
[9]
  Tm (° C.) Structural thermal stability: 81 °C
[9]; summary of Table 10
  melting temperature compared with MNEI: at least equal or improved
[2]
  sweetness potency at 8 °BX perception, greater than sugar: 4,000
  sweetness threshold, greater than sugar by weight: 15,000

B8: DM03: modified MNEI protein, SEQ ID NO: 15, E2N/I8T/N14K/E23A/Q28K/R31T/N35T/C41T/Y65K/S67N/R84L (protein)
chain: GNWEIIDTGPFTQKLGKFAVDEANKIGKYGTLTFTKVIRPTMKKTIYENEGFREIKGYEYQLYVKANDKLFRADISEDYKTRGLKLLRFNGPVPPP
modifications: DM3
[7]
  Sweetness Potency relative to MNEI: Not sweet at all
[9]
  Tm (° C.) Structural thermal stability: 81.5 °C
